Biological target: 30-601-30 nucleosome with Cy3-labeled H2B(K120C) (Xenopus laevis)
Assay: other fluorescence titration

Work on “Saccharomyces cerevisiae Chd1[Y137A] (from UniProt P32657 118-1274) (enzyme)” yielded an other of 40%.

Source: paper PMC9107065
